Source: article PMC5309844, “PDI regulates seizure activity via NMDA receptor redox in rats” (Scientific Reports, 2017)

What was measured:
[1] = target: T1, NMDA receptor NR1 subunit (rat (endogenous in hippocampus), UniProt P35439 19-938); assay: co-IP; rat hippocampal tissue lysed in RIPA buffer; equal amounts of total protein precipitated with the appropriate primary antibodies and protein G sepharose at 4 °C overnight; Western blot; normal, chronic epileptic, and control siRNA- or PDI siRNA-infused epileptic animals; conditions: partners not purified
T1 construct: NR1 subunit of the N-methyl-D-aspartate receptor, rat, endogenous in the hippocampus; source: endogenous, rat hippocampal tissue lysate (RIPA buffer)

[2] = target: T2, NMDA receptor NR2A subunit (rat (endogenous in hippocampus), UniProt Q00959 23-1464); assay: as above; conditions: partners not purified
T2 construct: NR2A subunit of the N-methyl-D-aspartate receptor, rat, endogenous in the hippocampus; source: endogenous, rat hippocampal tissue lysate (RIPA buffer)
T2 sequence (Q00959 23-1464): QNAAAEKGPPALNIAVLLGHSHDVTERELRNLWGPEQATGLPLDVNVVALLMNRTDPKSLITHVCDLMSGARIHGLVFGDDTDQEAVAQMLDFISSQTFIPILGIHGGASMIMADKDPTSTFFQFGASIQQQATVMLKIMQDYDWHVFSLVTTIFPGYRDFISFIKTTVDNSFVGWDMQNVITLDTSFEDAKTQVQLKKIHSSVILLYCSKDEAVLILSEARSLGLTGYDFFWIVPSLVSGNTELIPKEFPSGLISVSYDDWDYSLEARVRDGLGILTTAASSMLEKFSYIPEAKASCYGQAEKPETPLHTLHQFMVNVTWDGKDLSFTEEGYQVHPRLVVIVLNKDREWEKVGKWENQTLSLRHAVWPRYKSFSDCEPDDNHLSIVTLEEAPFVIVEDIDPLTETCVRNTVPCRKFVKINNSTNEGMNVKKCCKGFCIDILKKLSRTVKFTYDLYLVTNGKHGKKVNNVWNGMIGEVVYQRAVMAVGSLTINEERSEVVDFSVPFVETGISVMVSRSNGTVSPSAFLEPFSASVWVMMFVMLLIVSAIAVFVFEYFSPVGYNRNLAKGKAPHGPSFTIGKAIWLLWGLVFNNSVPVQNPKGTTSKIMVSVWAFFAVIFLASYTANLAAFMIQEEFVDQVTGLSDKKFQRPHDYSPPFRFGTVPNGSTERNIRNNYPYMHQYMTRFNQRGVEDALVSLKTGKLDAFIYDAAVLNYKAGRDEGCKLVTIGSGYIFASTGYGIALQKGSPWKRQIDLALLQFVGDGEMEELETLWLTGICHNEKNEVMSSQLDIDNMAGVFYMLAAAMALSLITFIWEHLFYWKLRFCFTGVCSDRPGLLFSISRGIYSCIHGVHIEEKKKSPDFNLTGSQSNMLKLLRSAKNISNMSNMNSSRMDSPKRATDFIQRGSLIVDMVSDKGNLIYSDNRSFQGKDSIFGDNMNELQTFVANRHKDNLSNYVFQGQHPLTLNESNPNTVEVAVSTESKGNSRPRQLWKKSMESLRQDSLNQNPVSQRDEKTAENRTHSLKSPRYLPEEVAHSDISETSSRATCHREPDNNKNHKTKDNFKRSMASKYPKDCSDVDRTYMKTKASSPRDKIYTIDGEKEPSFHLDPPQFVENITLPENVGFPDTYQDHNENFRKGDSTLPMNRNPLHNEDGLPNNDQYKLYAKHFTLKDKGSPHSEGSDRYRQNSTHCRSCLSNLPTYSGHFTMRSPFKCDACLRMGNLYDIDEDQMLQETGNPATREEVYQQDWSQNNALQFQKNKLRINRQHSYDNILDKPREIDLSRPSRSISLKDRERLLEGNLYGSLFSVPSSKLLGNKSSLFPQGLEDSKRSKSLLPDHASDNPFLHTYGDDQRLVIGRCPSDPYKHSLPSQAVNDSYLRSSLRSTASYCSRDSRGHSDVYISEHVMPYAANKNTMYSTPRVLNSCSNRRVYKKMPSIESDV

fold of co-precipitation in epileptic against normal animals [1]: ~2.4 fold
fold of co-precipitation in epileptic against normal animals [2]: ~2.4 fold
B1: Protein disulfide isomerase (enzyme, rat (endogenous in hippocampus), UniProt P04785 20-509, looked up)
chain: DALEEEDNVLVLKKSNFAEALAAHNYLLVEFYAPWCGHCKALAPEYAKAAAKLKAEGSEIRLAKVDATEESDLAQQYGVRGYPTIKFFKNGDTASPKEYTAGREADDIVNWLKKRTGPAATTLSDTAAAESLVDSSEVTVIGFFKDAGSDSAKQFLLAAEAVDDIPFGITSNSDVFSKYQLDKDGVVLFKKFDEGRNNFEGEITKEKLLDFIKHNQLPLVIEFTEQTAPKIFGGEIKTHILLFLPKSVSDYDGKLSNFKKAAEGFKGKILFIFIDSDHTDNQRILEFFGLKKEECPAVRLITLEEEMTKYKPESDELTAEKITQFCHHFLEGKIKPHLMSQELPEDWDKQPVKVLVGKNFEEVAFDEKKNVFVEFYAPWCGHCKQLAPIWDKLGETYKDHENIVIAKMDSTANEVEAVKVHSFPTLKFFPASADRTVIDYNGERTLDGFKKFLESGGQDGAGDNDDLDLEEALEPDMEEDDDQKAVKDEL
notes: Protein disulfide isomerase (PDI), rat, endogenous in the hippocampus of Sprague-Dawley rats; also called PDI; source: endogenous, rat hippocampal tissue lysate (RIPA buffer)
